# Experimental data: patent publication US20170112760
# T1: RALA peptide
# T1 chain: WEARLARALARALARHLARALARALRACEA
# B1: proteinase K (protein)
# chain: AAQTNAPWGLARISSTSPGTSTYYYDESAGQGSCVYVIDTGIEASHPEFEGRAQMVKTYYYSSRDGNGHGTHCAGTVGSRTYGVAKKTQLFGVKVLDDNGSGQYSTIIAGMDFVASDKNNRNCPKGVVASLSLGGGYSSSVNSAAARLQSSGVMVAVAAGNNNADARNYSPASEPSVCTVGASDRYDRRSSFSNYGSVLDIFGPGTSILSTWIGGSTRSISGTSMATPHVAGLAAYLMTLGKTTAASACRYIADTANKGDLSNIPFGTVNLLAYNNYQA
# Molecular target: T1, RALA peptide
protein,measurement,value
B1,release of DNA from RALA/pEGFP-N1 nanoparticles on agarose gel after 30 min with 20% proteinase K (0.1 mg/mL),the RALA peptide is cleaved by proteinase K thus releasing the DNA into solution
